Laboratory results as given in patent US7741283B2, “Compositions and methods for inhibiting cell proliferation” (St. Louis University, priority 2003, dated 2010).

Key:
IRS-2 = assay: 32P metabolic labeling and immunoprecipitation of IRS-2, Mv1Lu cells; assay type: cell-based, mink; conditions: Mv1Lu; for Induction of specific dephosphorylation (mobility change) of 32P-labeled IRS-2: IGFBPs 1 μg/ml, TGF-β1 20 pM
Mv1Lu cells = assay: [methyl-3H] thymidine incorporation (DNA synthesis), Mv1Lu cells; assay type: cell-based, mink; conditions: Mv1Lu cells
LRP-1 [1] = target: T1, LRP-1 (Mus musculus, UniProt Q91ZX7); assay: 125I-α2M* binding to MEF cells at pH 7.4; conditions: 10 μM protein, pH 7.4, MEF
T1 construct: endogenous in cells; host or cells: MEF (mouse embryonic fibroblasts)

LRP-1 [2] = assay: 125I-α2M* binding to Mv1Lu cells at pH 7.4; set-up: species or system mink; conditions: 10 μM protein, pH 7.4, Mv1Lu
acidic pH binding sites [3] = target: T2, acidic pH binding sites (Mus musculus, UniProt P14824); assay: Specific binding of 125I-ligands to PEA-13 cells at acidic pH; set-up: endogenous in cells; host or cells: PEA-13 (LRP-1-deficient mouse embryonic fibroblasts); conditions: 10 μM protein, pH 5.5, PEA-13
T2 sequence (P14824 2-673): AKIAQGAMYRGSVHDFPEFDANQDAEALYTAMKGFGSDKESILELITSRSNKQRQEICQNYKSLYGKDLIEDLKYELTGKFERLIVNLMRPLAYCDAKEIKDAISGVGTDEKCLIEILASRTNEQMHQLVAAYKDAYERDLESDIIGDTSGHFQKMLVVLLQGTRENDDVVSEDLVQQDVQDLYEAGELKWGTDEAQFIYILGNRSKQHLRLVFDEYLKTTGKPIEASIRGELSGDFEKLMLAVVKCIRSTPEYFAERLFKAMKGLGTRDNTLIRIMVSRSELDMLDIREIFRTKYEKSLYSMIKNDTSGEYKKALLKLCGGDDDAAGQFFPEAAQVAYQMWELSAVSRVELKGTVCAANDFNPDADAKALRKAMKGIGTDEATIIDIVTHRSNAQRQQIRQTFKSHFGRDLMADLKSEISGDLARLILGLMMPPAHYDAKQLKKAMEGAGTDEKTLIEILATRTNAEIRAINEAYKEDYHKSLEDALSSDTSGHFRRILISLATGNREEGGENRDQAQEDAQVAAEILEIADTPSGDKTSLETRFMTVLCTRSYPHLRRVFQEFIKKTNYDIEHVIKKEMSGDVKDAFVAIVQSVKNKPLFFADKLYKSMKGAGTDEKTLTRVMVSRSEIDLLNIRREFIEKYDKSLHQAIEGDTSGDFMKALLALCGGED

[4] = test system: TβR-V purified from bovine liver plasma membranes; assay: 125I-IGFBP-3 / 125I-TGF-β1 affinity labeling of purified TβR-V; assay type: binding; conditions: DSS, β1^25(41-65) 20 μM, RAP 10-40 μg/ml, α2M* 100 nM, lactoferrin 100 nM
acidic pH binding sites [5] = target: T2, acidic pH binding sites; assay: Specific binding of 125I-ligands to MEF cells at acidic pH; conditions: 10 μM protein, pH 5.5, MEF
acidic pH binding sites [6] = target: acidic pH binding sites (Neogale vison, UniProt A0A8C7BSJ2); assay: Specific binding of 125I-ligands to Mv1Lu cells at acidic pH; set-up: species or system mink
Chain of acidic pH binding sites (Neogale vison, UniProt A0A8C7BSJ2) (A0A8C7BSJ2 entry or part of it): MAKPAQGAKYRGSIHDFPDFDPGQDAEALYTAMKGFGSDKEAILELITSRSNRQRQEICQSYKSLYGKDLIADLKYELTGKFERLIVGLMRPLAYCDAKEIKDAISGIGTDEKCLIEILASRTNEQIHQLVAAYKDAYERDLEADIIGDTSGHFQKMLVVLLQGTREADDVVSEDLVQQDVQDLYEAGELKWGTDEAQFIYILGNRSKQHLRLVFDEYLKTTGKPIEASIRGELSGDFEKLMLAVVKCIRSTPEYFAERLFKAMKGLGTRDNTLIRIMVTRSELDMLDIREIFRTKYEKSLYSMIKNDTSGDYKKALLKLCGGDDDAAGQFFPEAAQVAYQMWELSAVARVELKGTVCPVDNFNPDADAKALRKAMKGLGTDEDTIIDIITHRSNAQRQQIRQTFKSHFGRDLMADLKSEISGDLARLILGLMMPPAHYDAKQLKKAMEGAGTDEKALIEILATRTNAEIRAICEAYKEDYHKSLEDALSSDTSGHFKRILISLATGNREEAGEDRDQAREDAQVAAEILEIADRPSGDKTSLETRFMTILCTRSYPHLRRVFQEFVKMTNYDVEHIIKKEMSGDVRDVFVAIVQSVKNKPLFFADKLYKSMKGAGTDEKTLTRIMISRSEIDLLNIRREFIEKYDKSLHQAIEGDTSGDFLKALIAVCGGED

T1 sequence (Q91ZX7 20-4545): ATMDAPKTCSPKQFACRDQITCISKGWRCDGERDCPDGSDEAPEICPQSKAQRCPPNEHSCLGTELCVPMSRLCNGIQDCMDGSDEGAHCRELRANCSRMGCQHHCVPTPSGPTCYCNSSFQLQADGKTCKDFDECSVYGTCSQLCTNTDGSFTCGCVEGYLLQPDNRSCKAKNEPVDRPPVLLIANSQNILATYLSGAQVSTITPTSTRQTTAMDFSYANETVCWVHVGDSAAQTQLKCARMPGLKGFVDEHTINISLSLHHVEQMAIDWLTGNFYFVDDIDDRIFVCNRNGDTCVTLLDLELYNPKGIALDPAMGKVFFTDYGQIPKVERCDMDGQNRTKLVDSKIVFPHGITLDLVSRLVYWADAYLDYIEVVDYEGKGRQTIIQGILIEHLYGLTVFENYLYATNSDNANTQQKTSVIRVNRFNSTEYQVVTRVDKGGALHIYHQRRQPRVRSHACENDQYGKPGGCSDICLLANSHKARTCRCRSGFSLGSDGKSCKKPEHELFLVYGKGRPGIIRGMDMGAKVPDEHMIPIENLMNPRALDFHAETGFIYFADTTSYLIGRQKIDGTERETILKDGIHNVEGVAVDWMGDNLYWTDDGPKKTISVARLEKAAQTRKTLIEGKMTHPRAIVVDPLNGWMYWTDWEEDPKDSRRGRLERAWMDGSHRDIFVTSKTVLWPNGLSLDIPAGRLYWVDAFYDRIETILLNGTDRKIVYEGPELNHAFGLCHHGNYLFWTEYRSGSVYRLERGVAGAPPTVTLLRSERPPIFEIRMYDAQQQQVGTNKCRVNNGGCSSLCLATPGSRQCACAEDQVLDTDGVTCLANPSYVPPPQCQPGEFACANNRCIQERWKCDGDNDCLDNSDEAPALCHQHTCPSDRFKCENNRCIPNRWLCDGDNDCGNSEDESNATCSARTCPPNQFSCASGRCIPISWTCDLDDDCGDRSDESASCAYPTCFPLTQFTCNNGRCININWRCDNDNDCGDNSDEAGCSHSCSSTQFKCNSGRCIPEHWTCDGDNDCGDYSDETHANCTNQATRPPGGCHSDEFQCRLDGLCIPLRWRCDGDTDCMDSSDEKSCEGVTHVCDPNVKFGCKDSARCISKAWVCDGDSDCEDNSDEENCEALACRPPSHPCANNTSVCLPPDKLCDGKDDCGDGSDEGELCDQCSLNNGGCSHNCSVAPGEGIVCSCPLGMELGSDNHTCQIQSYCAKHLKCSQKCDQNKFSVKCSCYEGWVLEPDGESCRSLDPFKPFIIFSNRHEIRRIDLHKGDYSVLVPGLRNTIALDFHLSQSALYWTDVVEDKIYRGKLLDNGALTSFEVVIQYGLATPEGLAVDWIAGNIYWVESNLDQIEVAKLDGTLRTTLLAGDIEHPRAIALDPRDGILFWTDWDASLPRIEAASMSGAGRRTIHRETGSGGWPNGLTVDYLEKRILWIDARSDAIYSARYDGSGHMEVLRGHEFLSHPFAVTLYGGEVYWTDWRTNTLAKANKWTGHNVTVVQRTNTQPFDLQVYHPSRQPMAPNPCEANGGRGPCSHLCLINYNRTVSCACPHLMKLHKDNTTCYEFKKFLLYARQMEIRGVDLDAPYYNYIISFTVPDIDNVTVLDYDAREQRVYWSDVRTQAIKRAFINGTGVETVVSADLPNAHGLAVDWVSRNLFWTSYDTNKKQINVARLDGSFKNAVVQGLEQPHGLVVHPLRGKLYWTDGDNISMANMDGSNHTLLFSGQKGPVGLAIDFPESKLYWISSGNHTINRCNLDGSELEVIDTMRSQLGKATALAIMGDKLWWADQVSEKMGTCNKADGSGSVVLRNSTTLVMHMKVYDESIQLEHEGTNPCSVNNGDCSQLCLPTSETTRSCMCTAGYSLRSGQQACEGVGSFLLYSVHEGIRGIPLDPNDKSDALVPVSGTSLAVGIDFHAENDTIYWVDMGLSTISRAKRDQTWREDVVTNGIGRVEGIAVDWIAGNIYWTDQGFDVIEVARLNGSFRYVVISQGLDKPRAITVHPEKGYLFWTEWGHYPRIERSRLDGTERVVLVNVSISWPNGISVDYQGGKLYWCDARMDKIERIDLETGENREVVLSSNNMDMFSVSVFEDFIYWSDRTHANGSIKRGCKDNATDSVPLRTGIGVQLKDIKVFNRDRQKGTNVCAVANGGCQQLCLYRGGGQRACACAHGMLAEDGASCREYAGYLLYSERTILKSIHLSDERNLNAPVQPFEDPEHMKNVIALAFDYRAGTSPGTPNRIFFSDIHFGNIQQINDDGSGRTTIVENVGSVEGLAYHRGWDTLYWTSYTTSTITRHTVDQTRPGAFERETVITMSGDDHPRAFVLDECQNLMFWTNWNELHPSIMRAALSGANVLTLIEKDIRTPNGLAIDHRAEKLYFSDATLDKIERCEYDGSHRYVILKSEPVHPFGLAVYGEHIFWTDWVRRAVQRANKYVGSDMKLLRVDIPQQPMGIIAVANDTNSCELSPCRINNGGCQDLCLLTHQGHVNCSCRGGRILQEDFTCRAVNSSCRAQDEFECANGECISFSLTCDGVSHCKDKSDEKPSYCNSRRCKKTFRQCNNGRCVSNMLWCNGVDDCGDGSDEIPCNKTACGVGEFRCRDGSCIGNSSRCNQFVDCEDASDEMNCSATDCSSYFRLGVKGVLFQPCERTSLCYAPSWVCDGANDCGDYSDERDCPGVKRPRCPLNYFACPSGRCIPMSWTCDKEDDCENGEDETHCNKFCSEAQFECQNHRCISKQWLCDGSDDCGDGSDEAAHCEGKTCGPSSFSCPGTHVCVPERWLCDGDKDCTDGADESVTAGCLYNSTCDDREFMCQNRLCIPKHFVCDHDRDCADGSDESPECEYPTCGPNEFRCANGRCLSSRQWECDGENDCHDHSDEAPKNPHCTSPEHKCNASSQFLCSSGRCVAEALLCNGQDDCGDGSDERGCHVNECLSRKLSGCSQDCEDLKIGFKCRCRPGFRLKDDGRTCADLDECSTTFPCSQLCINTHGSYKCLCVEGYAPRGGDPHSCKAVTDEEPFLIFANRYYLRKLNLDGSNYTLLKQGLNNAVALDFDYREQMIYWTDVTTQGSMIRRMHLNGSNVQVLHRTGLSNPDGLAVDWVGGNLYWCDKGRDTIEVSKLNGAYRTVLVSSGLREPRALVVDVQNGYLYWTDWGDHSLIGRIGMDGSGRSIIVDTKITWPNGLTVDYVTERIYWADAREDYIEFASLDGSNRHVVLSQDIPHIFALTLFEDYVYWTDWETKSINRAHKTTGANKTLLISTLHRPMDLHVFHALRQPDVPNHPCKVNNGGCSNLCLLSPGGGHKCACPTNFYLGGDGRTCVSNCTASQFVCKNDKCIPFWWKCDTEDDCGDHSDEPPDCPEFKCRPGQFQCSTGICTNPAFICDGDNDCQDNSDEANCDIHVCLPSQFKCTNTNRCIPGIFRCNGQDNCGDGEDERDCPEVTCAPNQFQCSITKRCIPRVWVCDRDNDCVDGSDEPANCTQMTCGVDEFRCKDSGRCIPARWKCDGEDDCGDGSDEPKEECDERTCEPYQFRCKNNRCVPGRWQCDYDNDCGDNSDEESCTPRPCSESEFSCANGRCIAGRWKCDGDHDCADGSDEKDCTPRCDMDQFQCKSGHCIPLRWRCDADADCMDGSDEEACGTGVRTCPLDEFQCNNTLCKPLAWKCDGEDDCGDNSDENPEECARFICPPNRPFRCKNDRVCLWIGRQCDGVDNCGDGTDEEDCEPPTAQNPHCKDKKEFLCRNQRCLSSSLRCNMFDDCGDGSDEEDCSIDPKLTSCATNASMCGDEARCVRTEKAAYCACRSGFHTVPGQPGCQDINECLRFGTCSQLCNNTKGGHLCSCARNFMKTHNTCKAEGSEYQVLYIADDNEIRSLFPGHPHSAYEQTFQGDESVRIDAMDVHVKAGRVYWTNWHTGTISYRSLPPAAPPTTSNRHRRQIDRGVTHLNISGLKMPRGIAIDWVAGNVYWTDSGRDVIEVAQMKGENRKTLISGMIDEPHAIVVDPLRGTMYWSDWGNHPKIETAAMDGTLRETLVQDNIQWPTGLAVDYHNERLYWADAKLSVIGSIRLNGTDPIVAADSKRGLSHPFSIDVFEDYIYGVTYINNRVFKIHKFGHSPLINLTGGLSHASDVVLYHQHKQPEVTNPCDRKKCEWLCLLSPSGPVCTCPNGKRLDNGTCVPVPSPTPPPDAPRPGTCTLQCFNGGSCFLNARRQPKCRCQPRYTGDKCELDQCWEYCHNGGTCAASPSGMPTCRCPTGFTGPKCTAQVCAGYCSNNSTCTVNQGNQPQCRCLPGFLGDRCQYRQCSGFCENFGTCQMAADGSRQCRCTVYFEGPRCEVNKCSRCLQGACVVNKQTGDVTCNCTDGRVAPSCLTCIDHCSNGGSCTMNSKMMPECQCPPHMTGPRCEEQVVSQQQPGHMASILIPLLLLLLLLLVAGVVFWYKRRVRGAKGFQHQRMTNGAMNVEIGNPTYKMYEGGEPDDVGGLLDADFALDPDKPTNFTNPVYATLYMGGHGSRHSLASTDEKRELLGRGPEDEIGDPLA

B1: (Q^3A^4Y^15L^16) IGF-I: an IGF-I analog which has a low affinity for IGFBP-3 (protein, UniProt P05019 49-118, looked up, variant E3Q T4A Q15Y F16L)
Insulin-like growth factor 1: GPQALCGAELVDALYLVCGDRGFYFNKPTGYGSSSRRAPQTGIVDECCFRSCDLRRLEMYCAPLKPAKSA
modifications: Insulin-like growth factor I
Blocking of IGFBP-3-induced specific dephosphorylation of IRS-2 by growth factors/cytokines (IRS-2; IGFBP-3 1 μg/ml […] then factor 10 nM (TGF-β1 20 pM) 0.5 hr): blocked | Blocking of IGFBP-3-induced growth inhibition (Mv1Lu cells): completely blocked

B2: lactoferrin: bovine lactoferrin, an LRP-1 ligand (protein, UniProt P24627 20-708, looked up)
Lactotransferrin: APRKNVRWCTISQPEWFKCRRWQWRMKKLGAPSITCVRRAFALECIRAIAEKKADAVTLDGGMVFEAGRDPYKLRPVAAEIYGTKESPQTHYYAVAVVKKGSNFQLDQLQGRKSCHTGLGRSAGWIIPMGILRPYLSWTESLEPLQGAVAKFFSASCVPCIDRQAYPNLCQLCKGEGENQCACSSREPYFGYSGAFKCLQDGAGDVAFVKETTVFENLPEKADRDQYELLCLNNSRAPVDAFKECHLAQVPSHAVVARSVDGKEDLIWKLLSKAQEKFGKNKSRSFQLFGSPPGQRDLLFKDSALGFLRIPSKVDSALYLGSRYLTTLKNLRETAEEVKARYTRVVWCAVGPEEQKKCQQWSQQSGQNVTCATASTTDDCIVLVLKGEADALNLDGGYIYTAGKCGLVPVLAENRKSSKHSSLDCVLRPTEGYLAVAVVKKANEGLTWNSLKDKKSCHTAVDRTAGWNIPMGLIVNQTGSCAFDEFFSQSCAPGADPKSRLCALCAGDDQGLDKCVPNSKEKYYGYTGAFRCLAEDVGDVAFVKNDTVWENTNGESTADWAKNLNREDFRLLCLDGTRKPVTEAQSCHLAVAPNHAVVSRSDRAAHVKQVLLHQQALFGKNGKNCPDKFCLFKSETKNLLFNDNTECLAKLGGRPTYEEYLGTEYVTAIANLKKCSTSPLLEACAFLTR
^125I-α2M* binding (LRP-1 [1]): did not have a significant effect | ^125I-α2M* binding (LRP-1 [2]): did not have a significant effect | Specific binding of ^125I-α2M* (acidic pH binding sites [3]): completely blocked | ^125I-TGF-β1 binding to purified TβR-V ([4]; 0.1 nM 125I-TGF-β1, […] 0° C.): did not have a significant effect | ^125I-IGFBP-3 binding to purified TβR-V ([4]; 10 nM 125I-IGFBP-3, […] 0° C.): did not have a significant effect | Specific binding of ^125I-α2M* (acidic pH binding sites [5]): completely blocked | Specific binding of ^125I-α2M* (acidic pH binding sites [6]; 10 μM protein, pH 5.5, Mv1Lu): completely blocked | IC50 (acidic pH binding sites [6]; Mv1Lu cells, pH 5 or 6, read-out: IC50, inhibition of ^125I-α2M* binding to cells): ~50 nM

B3: IGFBP-1: IGFBP known not to bind to the IGFBP-3 receptor (protein)
chain: APWQCAPCSAEKLALCPPVSASCSEVTRSAGCGCCPMCALPLGAACGVATARCARGLSCRALPGEQQPLHALTRGQGACVQESDASAPHAAEAGSPESPESTEITEEELLDNFHLMAPSEEDHSILWDAISTYDGSKALHVTNIKKWKEPCRIELYRVVESLAKAQETSGEEISKFYLPNCNKNGFYHSRQCETSMDGEAGLCWCVYPWNGKRIPGSPEIRGDPNCQIYFNVQN
Induction of specific dephosphorylation (mobility change) of 32P-labeled IRS-2 (IRS-2): did not induce

B4: IGFBP-2: IGFBP known not to bind to the IGFBP-3 receptor (protein, UniProt P18065 36-325, looked up)
Insulin-like growth …: AEVLFRCPPCTPERLAACGPPPVAPPAAVAAVAGGARMPCAELVREPGCGCCSVCARLEGEACGVYTPRCGQGLRCYPHPGSELPLQALVMGEGTCEKRRDAEYGASPEQVADNGDDHSEGGLVENHVDSTMNMLGGGGSAGRKPLKSGMKELAVFREKVTEQHRQMGKGGKHHLGLEEPKKLRPPPARTPCQQELDQVLERISTMRLPDERGPLEHLYSLHIPNCDKHGLYNLKQCKMSLNGQRGECWCVNPNTGKLIQGAPTIRGDPECHLFYNEQQEARGVHTQRMQ
Induction of specific dephosphorylation (mobility change) of 32P-labeled IRS-2 (IRS-2): did not induce
